# Source: patent US20210079070A1
# B1: VRC03 (antibody, V domains shown)
# VH: QVQLVQSGAVIKTPGSSVKISCRASGYNFRDYSIHWVRLIPDKGFEWIGWIKPLWGAVSYARQLQGRVSMTRQLSQDPDDPDWGVAYMEFSGLTSADTAEYFCVRRGSCDYCGDFPWQYWGQGTWVVSSA
# VL: EIVLTQSPGILSLSPGETATLFCKASQGGNAMTWYQKRRGQVPRLLIYDTSRRASGVPDRFVGSGSGTDFFLTINKLDREDFAVYYCQQFEFFGLGSELEVH
# B2: N6 70-03 (antibody, V domains shown)
# VH: RAHLVQSGTAMKKPGASVRVSCQTSGYTFTAHILFWFRQAPGRGLEWVGWIKPQYGAVNFGGGFRDRVTLTRQLSQDPDDPDWGIAYMDIRGLKPDDTAVYYCARDRSYGDSSWALDAWGQGTTVVVSA
# VL: YIHVTQSPSSLSVSIGDRVTINCQTSQGVGSDLHWYQHKPGRAPKLLIHHTSSVEDGVPSRFSGSGFHTSFNLTISDLQADDIATYYCQVLQFFGRGSRLHIK
# B3: N6 70-03 Fab (Fab, V domains shown)
# VH: B2 VH
# VL: B2 VL
# B4: VRC06 (antibody, V domains shown)
# VH: EVQLVESGPVMRKPGSSMKISCATSGYNFRDFSIHWVRFNRRYGFEWIGWIKPMWGAVNYARQLQGRVSMSRLFSQDLYYPDRGTAYLEFSGLTSADTADYFCVRRGSSCPHCGDFHFEHWGQGTAVVVSA
# VL: EIVLTQSPATLSLSPGERATLSCRASQGGNSLNWYQKRRGQTPRLLIYDTSRRASDIPEKFVGSGSGTDFSLTITKVGPEDFAVYYCQQFEFFGLGTTLEIN
# Assays:
# [1] = biological target: BG505 SOSIP.664 Env ectodomain trimer (HIV-1); test: SPR, BG505 SOSIP.664 captured by mAb 2G12, Fab in the flow phase
# [2] = biological target: JRFL SOSIP.664 (HIV-1); test: ELISA on soluble trimer, panel JRFL SOSIP.664, OD 450
# [3] = biological target: BG505 SOSIP.664 Env ectodomain trimer (HIV-1); test: ELISA on soluble trimer, panel BG505 SOSIP.664, OD 450
# [4] = biological target: BG505 DS-SOSIP; test: ELISA, panels headed BG505 DS-SOSIP, OD 450
# [5] = biological target: BG505 SOSIP.664 Env ectodomain trimer (HIV-1); test: ELISA, BG505 SOSIP.664 coated on the plate, HRP anti-human IgG, OD 450
# [6] = biological target: HIV-1 Env (wild type, as used in the mutagenesis mapping of FIG. 6) (HIV-1); test: cell-based or functional assay
# [7] = biological target: HIV-1 Env R304E mutant (HIV-1); test: cell-based or functional assay
# [8] = biological target: E62K/E64K
# [9] = biological target: BG505 SOSIP.664 Env ectodomain trimer (HIV-1); test: ELISA, panel 'N6 70-03 Binding to BG505 SOSIP.664', HIV-1 Env mutation: WT
molecule,measurement,setting,value
N6 Fab,Kd,[1],0.36 nM
N6 (antibody),EC50 (read off the curve),[2],0.2 mg/L
VRC01 Fab,Kd,[1],22.1 nM
VRC01 (antibody),EC50 (read off the curve),[2],0.2 mg/L
same,EC50 (read off the curve),[3],0.4 mg/L
B1,EC50 (read off the curve),[4],0.3 mg/L
same,EC50 (read off the curve),[5],0.8 mg/L
B2,"neutralization sensitivity (IC50), Env-pseudovirus infection of TZM-bl cells",[6],0.007 mg/L
same,"neutralization sensitivity (IC50), Env-pseudovirus infection of TZM-bl cells",[7],0.053 mg/L
same,reduction in neutralization sensitivity compared to the WT virus,[7],8 fold
same,EC50 (read off the curve),[8],0.1 mg/L
same,EC50 (read off the curve),[9],0.2 mg/L
same,EC50 (read off the curve),[2],0.2 mg/L
same,EC50 (read off the curve),[3],0.2 mg/L
B3,Kd,[1],0.016 nM
B4,EC50 (read off the curve),[4],0.5 mg/L
